# B1: recombinant ectodomain of human IFN-λ receptor 1 (hIFN-λR1) (receptor)
# chain: RPRLAPPQNVTLLSQNFSVYLTWLPGLGNPQDVTYFVAYQSSPTRRRWREVEECAGTKELLCSMMCLKKQDLYNKFKGRVRTVSPSSKSPWVESEYLDYLFEVEPAPPVLVLTQTEEILSANATYQLPPCMPPLDLKYEVAFWKEGAGNKTLFPVTPHGQPVQITLQPAASEHHCLSARTIYTFSVPKYSKFSKPTCFLLEVPEANWA
# Experiments:
# Test in all cases: SPR
# [1] = biological target: designed human interferon-λ3 variant hIFN-λ3-DE1, His-tagged (human, UniProt Q8IZI9)
# [2] = biological target: B1
# [3] = biological target: B1
binder,measurement,setting,value
B1,Kd,[1],6.61 nM
same,koff,[1],0.0244 s⁻¹
"wild-type human interferon-λ3 (hIFN-λ3-WT), His-tagged (ligand) VPVARLRGALPDARGCHIAQFKSLSPQELQAFKRAKDALEESLLLKDCKCRSRLFPRTWDLRQLQVRERPVALEAELALTLKVLEATADTDPALGDVLDQPLHTLHHILSQLRACIQPQPTAGPRTRGRLHHWLHRLQEAPKKESPGCLEASVTFNLFRLLTRDLNCVASGDLCV",koff,[2],0.0183 s⁻¹
same,Kd,[3],7.67 nM

# From PMC12866752 (2025)
